According to patent publication US20260139057A1 (University of California, published 2026):

Legend:
[1] = molecular target: T1, recombinant human integrin αvβ8 ectodomain (human, UniProt P06756 31-992; P26012 43-681); experiment: cell-based or functional assay
[2] = molecular target: T1, recombinant human integrin αvβ8 …; experiment: cell-based or functional assay; remark: listed apart in the source
[3] = molecular target: T1, recombinant human integrin αvβ8 …; experiment: cell-based or functional assay; remark: listed apart in the source
[4] = molecular target: integrin αvβ6 ectodomain (immobilized) (human, UniProt P06756 31-992; P18564 22-709); experiment: cell-based or functional assay
[5] = molecular target: T2, integrin αvβ5 ectodomain (immobilized) (Homo sapiens (Human), UniProt P06756 31-992; P18084 24-719); experiment: binding to immobilized integrin ectodomains blocked with BSA
T2 construct: R&D Systems; copies: 1 + 1

[6] = molecular target: T3, integrin αvβ1 ectodomain (immobilized) (Homo sapiens (Human), UniProt P06756 31-992; P05556 21-728); experiment: as above
T3 construct: R&D Systems; copies: 1 + 1

[7] = molecular target: T1, recombinant human integrin αvβ8 …; experiment: cell-based or functional assay; remark: listed apart in the source
[8] = molecular target: T1, recombinant human integrin αvβ8 …; experiment: KinExA; antibody format and antigen form not stated
[9] = molecular target: T4, integrin αvβ3 on HEK 293 cells stably expressing αvβ3 (Homo sapiens (Human), UniProt P06756 31-1048; P05106 27-788); experiment: flow cytometry on HEK 293 cells stably expressing αvβ3
T4 construct: also called αvβ3 expressing 293 cells
Text: A) Binding of anti-β3 (AP3) relative to F12 IgG4, H4C8 RGD1 IgG4,H4C8 RGD3 IgG4, H3C8 RGD3 with VL Fr4 V108/L109 (mouse) IgG4, H4C8 RGD3 IgG4, H3C8 RGD3 VL Fr4 K108/V109 (human) IgG4, H4C8 RGD1 VH Fr3 E72, H4C8 RGD3 VH Fr3 E72 IgG4. HEK 293 cells stably expressing αvβ3 were stained and the percentage of relative binding to the mean fluorescence intensity of AP3 is shown, B) Expi293 cells transiently expressing αvβ6 were stained and the percentage of relative binding to the mean fluorescence intensity of 3G9 is shown, C) HEK 293 cells stably expressing αvβ8 were stained and the percentage of relative binding to the mean fluorescence intensity of HuF12 is shown. All primary antibodies were used at 2.5 ug/ml. […] Binding or 3G9 is shown and percent binding of antibodies relative to 3G9 binding to αvβ6 is shown. Dotted line indicate binding observed with each positive control antibody,
RGD ligands bind promiscuously to a number of integrins. A highly desirable quality in RGD-mimetics is to retain specificity for some but not all integrins. One highly desirable property would be a dual inhibitor to both the αvβ8- and αvβ6-integrins, without cross-reactivity to other integrins. This property would facilitate specific targeting of integrin-mediated TGF-β activation without the liability of side-effects mediated by broadly blocking other integrins. We first measured binding to αvβ3 expressing 293 cells. Binding of anti-β3 (AP3) relative to F12 IgG4, H4C8 RGD1 IgG4,H4C8 RGD3 IgG4, H3C8 RGD3 with VL Fr4 V108/L109 (mouse) IgG4, H4C8 RGD3 IgG4, H3C8 RGD3 VI Fr4 K108/V109 (human) IgG4, H4C8 RGD1 Vh Fr3 E72, H4C8 RGD3 Vh Fr3 E72 IgG4. […] Expi293 cells transiently expressing αvβ6 were stained and the percentage of relative binding to the mean fluorescence intensity of anti-β6 (3G9) determined.

[10] = molecular target: T2, integrin αvβ5 ectodomain (immobilized); experiment: binding to immobilized ectodomains
[11] = molecular target: T3, integrin αvβ1 ectodomain (immobilized); experiment: binding to immobilized ectodomains

T4 sequence (P06756 31-1048 limits assumed, chain 1 of 2): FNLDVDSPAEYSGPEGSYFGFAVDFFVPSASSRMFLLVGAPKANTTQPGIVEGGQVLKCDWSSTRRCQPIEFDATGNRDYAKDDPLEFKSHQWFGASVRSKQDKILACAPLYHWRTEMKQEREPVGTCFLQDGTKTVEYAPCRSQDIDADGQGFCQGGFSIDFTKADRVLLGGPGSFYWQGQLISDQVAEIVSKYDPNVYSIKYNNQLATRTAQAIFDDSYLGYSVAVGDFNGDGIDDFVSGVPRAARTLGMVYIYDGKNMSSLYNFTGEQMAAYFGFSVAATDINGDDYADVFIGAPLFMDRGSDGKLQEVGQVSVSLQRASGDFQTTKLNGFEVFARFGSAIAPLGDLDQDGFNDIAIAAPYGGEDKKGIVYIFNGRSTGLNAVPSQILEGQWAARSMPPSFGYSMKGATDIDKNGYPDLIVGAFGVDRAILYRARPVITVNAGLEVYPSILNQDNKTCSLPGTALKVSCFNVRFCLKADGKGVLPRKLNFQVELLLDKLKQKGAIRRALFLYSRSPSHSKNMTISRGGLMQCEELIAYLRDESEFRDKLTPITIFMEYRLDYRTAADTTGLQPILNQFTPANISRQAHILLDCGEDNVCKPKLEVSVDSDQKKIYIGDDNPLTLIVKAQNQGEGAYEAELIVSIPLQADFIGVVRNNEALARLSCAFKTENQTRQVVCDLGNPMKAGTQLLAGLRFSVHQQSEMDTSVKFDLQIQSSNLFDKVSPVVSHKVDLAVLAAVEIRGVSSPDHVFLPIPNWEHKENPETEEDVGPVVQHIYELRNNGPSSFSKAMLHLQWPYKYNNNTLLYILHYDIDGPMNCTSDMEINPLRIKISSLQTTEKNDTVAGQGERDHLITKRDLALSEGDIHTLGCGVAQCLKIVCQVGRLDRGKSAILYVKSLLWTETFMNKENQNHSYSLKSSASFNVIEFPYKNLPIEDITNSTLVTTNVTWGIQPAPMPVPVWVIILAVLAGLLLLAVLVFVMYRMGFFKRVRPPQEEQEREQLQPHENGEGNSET
T4 sequence (P05106 27-788 limits assumed, chain 2 of 2): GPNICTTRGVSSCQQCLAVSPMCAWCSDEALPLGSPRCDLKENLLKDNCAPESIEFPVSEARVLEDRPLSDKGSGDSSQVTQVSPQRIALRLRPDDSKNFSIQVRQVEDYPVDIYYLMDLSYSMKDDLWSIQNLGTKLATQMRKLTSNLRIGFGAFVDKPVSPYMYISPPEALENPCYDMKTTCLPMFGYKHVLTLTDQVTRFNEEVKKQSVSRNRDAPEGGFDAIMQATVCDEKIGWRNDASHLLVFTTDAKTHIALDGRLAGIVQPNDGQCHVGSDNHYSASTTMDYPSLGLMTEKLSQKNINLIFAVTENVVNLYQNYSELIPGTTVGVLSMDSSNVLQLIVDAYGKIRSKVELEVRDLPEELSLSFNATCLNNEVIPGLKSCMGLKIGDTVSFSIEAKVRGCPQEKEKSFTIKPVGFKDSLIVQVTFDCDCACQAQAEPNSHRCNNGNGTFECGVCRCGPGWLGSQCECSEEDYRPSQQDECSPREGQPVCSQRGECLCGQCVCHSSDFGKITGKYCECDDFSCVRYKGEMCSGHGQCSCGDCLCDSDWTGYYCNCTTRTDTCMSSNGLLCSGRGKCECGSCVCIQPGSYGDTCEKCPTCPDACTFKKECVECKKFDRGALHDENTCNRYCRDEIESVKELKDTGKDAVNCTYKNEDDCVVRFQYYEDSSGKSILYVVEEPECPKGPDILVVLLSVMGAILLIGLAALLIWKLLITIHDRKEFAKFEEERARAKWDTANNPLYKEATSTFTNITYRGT
Chain of integrin αvβ6 ectodomain (immobilized) (P06756 31-992, chain 1 of 2): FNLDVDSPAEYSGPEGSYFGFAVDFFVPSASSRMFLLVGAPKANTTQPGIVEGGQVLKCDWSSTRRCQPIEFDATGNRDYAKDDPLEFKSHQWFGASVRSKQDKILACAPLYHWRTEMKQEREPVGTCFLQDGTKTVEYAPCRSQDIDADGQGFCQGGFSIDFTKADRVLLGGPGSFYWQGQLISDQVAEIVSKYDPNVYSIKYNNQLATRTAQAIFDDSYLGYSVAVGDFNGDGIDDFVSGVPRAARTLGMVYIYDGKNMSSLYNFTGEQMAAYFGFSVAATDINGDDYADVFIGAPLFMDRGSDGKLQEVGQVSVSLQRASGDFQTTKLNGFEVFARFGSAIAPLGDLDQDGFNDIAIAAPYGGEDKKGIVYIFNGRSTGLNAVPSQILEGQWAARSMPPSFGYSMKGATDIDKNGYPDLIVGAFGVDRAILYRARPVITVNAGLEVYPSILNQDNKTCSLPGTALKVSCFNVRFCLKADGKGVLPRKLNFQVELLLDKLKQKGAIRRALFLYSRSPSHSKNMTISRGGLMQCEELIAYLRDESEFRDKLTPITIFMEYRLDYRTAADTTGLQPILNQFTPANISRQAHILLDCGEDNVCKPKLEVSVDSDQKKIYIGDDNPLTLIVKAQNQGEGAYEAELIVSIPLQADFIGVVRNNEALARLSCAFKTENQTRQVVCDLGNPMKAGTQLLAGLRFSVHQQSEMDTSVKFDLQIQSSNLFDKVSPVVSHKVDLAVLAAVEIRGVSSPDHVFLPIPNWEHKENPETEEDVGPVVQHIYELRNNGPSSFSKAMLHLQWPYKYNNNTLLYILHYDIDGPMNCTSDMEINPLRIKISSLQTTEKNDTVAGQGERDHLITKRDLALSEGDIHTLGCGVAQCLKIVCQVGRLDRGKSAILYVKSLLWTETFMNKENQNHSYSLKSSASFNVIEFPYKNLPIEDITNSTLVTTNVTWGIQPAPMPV
Chain of integrin αvβ6 ectodomain (immobilized) (P18564 22-709, chain 2 of 2): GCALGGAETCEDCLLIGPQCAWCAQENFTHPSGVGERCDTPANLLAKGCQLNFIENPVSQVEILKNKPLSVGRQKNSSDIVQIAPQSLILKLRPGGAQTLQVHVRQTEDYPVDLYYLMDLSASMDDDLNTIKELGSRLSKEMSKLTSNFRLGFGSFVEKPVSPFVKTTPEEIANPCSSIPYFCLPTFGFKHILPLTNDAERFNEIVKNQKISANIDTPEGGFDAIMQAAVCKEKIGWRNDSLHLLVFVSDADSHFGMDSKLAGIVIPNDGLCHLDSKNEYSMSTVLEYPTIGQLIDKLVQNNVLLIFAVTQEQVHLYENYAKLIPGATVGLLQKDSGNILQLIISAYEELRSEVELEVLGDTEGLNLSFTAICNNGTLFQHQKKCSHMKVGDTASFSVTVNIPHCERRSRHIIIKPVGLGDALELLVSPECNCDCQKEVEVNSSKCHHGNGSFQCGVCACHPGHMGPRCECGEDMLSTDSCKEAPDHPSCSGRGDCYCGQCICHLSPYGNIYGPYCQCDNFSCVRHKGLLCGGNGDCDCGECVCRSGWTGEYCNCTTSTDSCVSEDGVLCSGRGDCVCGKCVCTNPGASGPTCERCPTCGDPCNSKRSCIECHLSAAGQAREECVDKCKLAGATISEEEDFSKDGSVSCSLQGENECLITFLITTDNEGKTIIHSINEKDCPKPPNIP
T3 sequence (P06756 31-992 limits assumed, chain 1 of 2): as the sequence (P06756 31-992, chain 1 of 2) above
T3 sequence (P05556 21-728 limits assumed, chain 2 of 2): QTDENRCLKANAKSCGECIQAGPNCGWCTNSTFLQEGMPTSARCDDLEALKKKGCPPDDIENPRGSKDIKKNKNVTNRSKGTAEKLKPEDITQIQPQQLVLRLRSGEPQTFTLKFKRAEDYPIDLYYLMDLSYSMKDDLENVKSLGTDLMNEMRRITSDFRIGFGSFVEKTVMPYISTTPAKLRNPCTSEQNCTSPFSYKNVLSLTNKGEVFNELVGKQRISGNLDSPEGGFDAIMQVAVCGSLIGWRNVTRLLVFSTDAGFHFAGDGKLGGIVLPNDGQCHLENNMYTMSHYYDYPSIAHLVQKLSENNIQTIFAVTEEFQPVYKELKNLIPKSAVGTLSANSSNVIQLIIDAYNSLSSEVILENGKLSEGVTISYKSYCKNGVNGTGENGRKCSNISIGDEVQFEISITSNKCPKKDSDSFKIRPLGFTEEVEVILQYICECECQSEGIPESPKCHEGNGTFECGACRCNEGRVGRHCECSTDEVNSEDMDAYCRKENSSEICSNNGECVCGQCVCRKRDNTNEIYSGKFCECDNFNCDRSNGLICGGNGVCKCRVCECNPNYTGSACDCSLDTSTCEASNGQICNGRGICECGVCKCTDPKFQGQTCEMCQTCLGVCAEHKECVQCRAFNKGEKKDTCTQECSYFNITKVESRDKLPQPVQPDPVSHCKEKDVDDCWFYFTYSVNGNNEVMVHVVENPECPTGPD
T2 sequence (P06756 31-992 limits assumed, chain 1 of 2): as the sequence (P06756 31-992, chain 1 of 2) above
T2 sequence (P18084 24-719 limits assumed, chain 2 of 2): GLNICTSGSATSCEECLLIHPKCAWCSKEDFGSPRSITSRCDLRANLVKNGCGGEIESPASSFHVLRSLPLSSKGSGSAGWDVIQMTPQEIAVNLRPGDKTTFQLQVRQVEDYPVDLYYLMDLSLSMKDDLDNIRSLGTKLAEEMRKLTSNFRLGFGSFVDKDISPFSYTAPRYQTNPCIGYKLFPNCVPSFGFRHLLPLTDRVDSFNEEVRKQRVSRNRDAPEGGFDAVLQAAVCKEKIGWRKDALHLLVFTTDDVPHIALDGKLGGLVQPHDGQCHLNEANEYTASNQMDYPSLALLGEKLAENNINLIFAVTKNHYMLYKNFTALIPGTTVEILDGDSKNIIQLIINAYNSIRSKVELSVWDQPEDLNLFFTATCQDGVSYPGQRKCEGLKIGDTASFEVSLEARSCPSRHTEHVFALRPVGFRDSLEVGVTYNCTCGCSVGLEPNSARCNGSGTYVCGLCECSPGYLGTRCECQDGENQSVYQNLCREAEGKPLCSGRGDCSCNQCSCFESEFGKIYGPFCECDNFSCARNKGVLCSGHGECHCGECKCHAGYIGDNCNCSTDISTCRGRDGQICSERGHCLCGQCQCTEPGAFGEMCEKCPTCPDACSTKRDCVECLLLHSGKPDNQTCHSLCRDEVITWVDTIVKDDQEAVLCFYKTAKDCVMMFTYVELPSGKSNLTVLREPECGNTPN

Binder | ED50 of the inhibition of αvβ8-mediated TGF-β activation (immobilized αvβ8, TMLC GARP/L-TGF-β reporter cells) [1] [µg/mL] | IC50 of the inhibition of TGF-β activation (TMLC GARP/TGF-β1 reporter cells on αvβ8-coated wells) [2] [µg/mL] | EC50 of inhibition of αvβ8-mediated TGF-β activation [3] [nM] | ED50 of the inhibition of αvβ6-mediated TGF-β activation (immobilized human αvβ6, TMLC GARP/L-TGF-β reporter cells) [4] [µg/mL] | binding result [5] | binding result [6] | ED50 of the inhibition of αvβ8-mediated TGF-β activation (immobilized human αvβ8, TMLC GARP/L-TGF-β reporter cells) [7] [µg/mL] | binding result [9] | further results
HuC6D4 IgG2a (antibody, V domains shown) VH: QIQLVQSGAEVKKPGASVKISCKASGYTFTDYSMHWVRQAPGQGLEWVARINTETGEPTFADDFRGRFTVTLDTSTSTAYLEIRSLRSDDTAVYFCAIFYYGRDTWGQGTTLTVSS VL: EIVMTQSPATLSVSPGERVTMSCKSSQSLLNSRSRKNYLAWYQQKPGQAPRLLIYWASTRESGVPARFSGSGSGTEFTLTISSVQSEDFAVYYCKQSYNLLSFGQGTVLEIKR | 0.23 | 3.1 | 230 | – | – | – | – | – | –
huF12 VH with huC6D4 VL, murine IgG2a (antibody, V domains shown) VH: QIQLVQSGAEVKKPGASVKISCKASGYTFTKYSMHWVRQAPGQGLEWVARINTETGEPTFADDFRGRFTVTLDTSTSTAYLEIRSLRSDDTAVYFCAIFYYGRDTWGQGTTLTVSS VL: EIVMTQSPATLSVSPGERVTMSCKSSQSLLNSRSRKNYLAWYQQKPGQAPRLLIYWASTRESGVPARFSGSGSGTEFTLTISSVQSEDFAVYYCKQSYNLLSFGQGTVLEIKR | – | 0.337 | – | – | – | – | – | – | –
HuC6D4 (format not stated) (antibody, V domains shown) VH: QIQLVQSGAEVKKPGASVKISCKASGYTFTDYSMHWVRQAPGQGLEWVARINTETGEPTFADDFRGRFTVTLDTSTSTAYLEIRSLRSDDTAVYFCAIFYYGRDTWGQGTTLTVSS VL: EIVMTQSPATLSVSPGERVTMSCKSSQSLLNSRSRKNYLAWYQQKPGQAPRLLIYWASTRESGVPARFSGSGSGTEFTLTISSVQSEDFAVYYCKQSYNLLSFGQGTVLEIKR | – | – | – | – | – | – | – | – | Kd [8]: 0.0821 nM
H4C8 RGD3, human IgG4 (antibody, V domains shown, also called H4C8 RGD3 IgG4) VH: QVQLVQSGAEVKKPGASVKVSCKVSGYTLTRQSMHWVRQAPGKGLEWMGRINTETGEPTYAQKFQGRVTMTQDTSTDTAYMELSSLRSEDTAVYFCAIFYYGRDTWGQGTTVTVSS VL: EIVMTQSPATLSVSPGERVTLSCKSSQSLLGRGDLGRLKKNALAWYQQKPGQAPRLLIYWASTRETGVPARFSGSGSGTEFTLTISSLQSEDFAVYYCKQSYNLLSFGQGTKVEIKR | – | – | – | 0.03 | no binding | no binding | 0.02 | no binding (tested: 2.5 µg/ml) | –
H3C8 RGD3, human IgG4 (VL Fr4 K108/V109, human) (antibody, V domains shown, also called H3C8 RGD3 VL Fr4 K108/V109 (human) IgG4) VH: QVQLVQSGAEVKKPGASVKVSCKVSGYTLTEQSMHWVRQAPGKGLEWMGRINTETGEPTYAQKFQGRVTMTQDTSTDTAYMELSSLRSEDTAVYFCAIFYYGRDTWGQGTTVTVSS VL: EIVMTQSPATLSVSPGERVTLSCKSSQSLLGRGDLGRLKKNALAWYQQKPGQAPRLLIYWASTRETGVPARFSGSGSGTEFTLTISSLQSEDFAVYYCKQSYNLLSFGQGTKVEIKR | – | – | – | 0.07 | – | – | 0.84 | no binding (tested: 2.5 µg/ml) | binding result [10]: no binding; binding result [11]: no binding

The next lines start with results.

ED50 of the inhibition of αvβ8-mediated TGF-β activation (immobilized αvβ8, TMLC GARP/L-TGF-β reporter cells) [1] [µg/mL] | IC50 of the inhibition of TGF-β activation (TMLC GARP/TGF-β1 reporter cells on αvβ8-coated wells) [2] [µg/mL] | EC50 of inhibition of αvβ8-mediated TGF-β activation [3] [nM] | ED50 of the inhibition of αvβ6-mediated TGF-β activation (immobilized human αvβ6, TMLC GARP/L-TGF-β reporter cells) [4] [µg/mL] | binding result [5] | binding result [6] | ED50 of the inhibition of αvβ8-mediated TGF-β activation (immobilized human αvβ8, TMLC GARP/L-TGF-β reporter cells) [7] [µg/mL] | binding result [9] | Binder | further results
0.25 | – | 250 | – | – | – | – | – | H3.C12, human IgG4 (antibody, V domains shown) VH: QVQLVQSGAEVKKPGASVKVSCKVSGYTLTEQSMHWVRQAPGKGLEWMGRINTETGEPTYAQKFQGRVTMTQDTSTDTAYMELSSLRSEDTAVYFCAIFYYGRDTWGQGTTVTVSS VL: EIVMTQSPATLSVSPGERVTMSCRSSQSLLHSRTRKNYLAWYQQKPGQAPRLLIYWASTRETGVPARFSGSGSGTEFTLTISSLQSEDFAVYYCKQSYNLLSFGQGTVLEIKR | –
– | 1.15 | – | – | – | – | – | – | huC6D4 VH with huF12 VL, murine IgG2a (antibody, V domains shown) VH: QIQLVQSGAEVKKPGASVKISCKASGYTFTDYSMHWVRQAPGQGLEWVARINTETGEPTFADDFRGRFTVTLDTSTSTAYLEIRSLRSDDTAVYFCAIFYYGRDTWGQGTTLTVSS VL: EIVMTQSPATLSVSPGERVTMSCKSSQSLLHSRSRKNYLAWYQQKPGQAPRLLIYWASTRESGVPARFSGSGSGTEFTLTISSVQSEDFAVYYCKQSYNLLSFGQGTVLEIKR | –
– | – | – | 1.54 | no binding | no binding | 3.3 | – | HuC6D4 RGD3, mouse IgG2a (antibody, V domains shown, Mouse IgG2a) VH: QIQLVQSGAEVKKPGASVKISCKASGYTFTDYSMHWVRQAPGQGLEWVARINTETGEPTFADDFRGRFTVTLDTSTSTAYLEIRSLRSDDTAVYFCAIFYYGRDTWGQGTTLTVSS VL: EIVMTQSPATLSVSPGERVTMSCKSSQSLLGRGDLGRLKKNALAWYQQKPGQAPRLLIYWASTRESGVPARFSGSGSGTEFTLTISSVQSEDFAVYYCKQSYNLLSFGQGTVLEIKR | –
0.03 | – | 300 | – | – | – | – | – | H4C8m (H4C8 with non-humanized, murine VL Fr4), human IgG4 (antibody, V domains shown) VH: QVQLVQSGAEVKKPGASVKVSCKVSGYTLTRQSMHWVRQAPGKGLEWMGRINTETGEPTYAQKFQGRVTMTQDTSTDTAYMELSSLRSEDTAVYFCAIFYYGRDTWGQGTTVTVSS VL: EIVMTQSPATLSVSPGERVTLSCRSSQSLLHSRSRKNYLAWYQQKPGQAPRLLIYWASTRETGVPARFSGSGSGTEFTLTISSLQSEDFAVYYCKQSYNLLSFGQGTVLEIKR | –
– | – | – | 0.04 | no binding | no binding | 0.07 | no binding (tested: 2.5 µg/ml) | H4C8 RGD1, human IgG4 (antibody, V domains shown, also called H4C8 RGD1 IgG4) VH: QVQLVQSGAEVKKPGASVKVSCKVSGYTLTRQSMHWVRQAPGKGLEWMGRINTETGEPTYAQKFQGRVTMTQDTSTDTAYMELSSLRSEDTAVYFCAIFYYGRDTWGQGTTVTVSS VL: EIVMTQSPATLSVSPGERVTLSCKSSQSLLRRGDLATIHGNALAWYQQKPGQAPRLLIYWASTRETGVPARFSGSGSGTEFTLTISSLQSEDFAVYYCKQSYNLLSFGQGTKVEIKR | –
